# Test results from publication PMC9969229.
# Assays:
# [1] = molecular target: glycosylated prostate specific antigen (human) (UniProt P07288); assay: BLI; […] (0.4 μg mL^-1) […]
# [2] = molecular target: neuraminidase-treated glycosylated human PSA (human) (UniProt P07288); assay: BLI; […] (15 μg mL^-1) […], in buffer
substance,measurement,setting,value
Sambucus nigra lectin (natural protein),maximum signal to noise (PSA against no PSA),[1],12.8
same,signal to noise (PSA against no PSA),[1],1.5
same,reduction in signal against fresh glycosylated PSA,[2],50%
